Results as given in the supplement of paper PMC11246515.
± gives the standard deviation of the averaged measurements.

Assay: total protein half-life in vivo (active degradation + dilution); higher = more stable protein
[1] = E. coli NCM3722 delta-clpP delta-lon delta-hslV, growth: N-lim chemostat, doubling time 6 h
[2] = E. coli NCM3722 delta-clpP, growth: N-lim chemostat, doubling time 6 h
[3] = E. coli NCM3722 delta-hslV, growth: N-lim chemostat, doubling time 6 h
[4] = E. coli NCM3722 delta-lon, growth: N-lim chemostat, doubling time 6 h
[5] = E. coli NCM3722 delta-smpB, growth: N-lim chemostat, doubling time 6 h
[6] = wild type E. coli NCM3722, growth: C-lim chemostat, doubling time 6 h
[7] = wild type E. coli NCM3722, growth: C-lim chemostat, doubling time 12 h
[8] = wild type E. coli NCM3722, growth: N-lim chemostat, doubling time 6 h
[9] = wild type E. coli NCM3722, growth: N-lim chemostat, doubling time 12 h
[10] = wild type E. coli NCM3722, growth: P-lim chemostat, doubling time 6 h
[11] = wild type E. coli NCM3722, growth: P-lim chemostat, doubling time 12 h
[12] = wild type E. coli NCM3722, growth: C-lim chemostat, doubling time 3 h

## MAAINTKVKKAVIPVAGLGTRMLPATKAIPKEMLPLVDKPLIQYVVNECIAAGITEIVLVTHSSKNSIENHFDTSFELEAMLEKRVKRQLLDEVQSICPPHVTIMQVRQGLAKGLGHAVLCAHPVVGDEPVAVILPDVILDEYESDLSQDNLAEMIRRFDETGHSQIMVEPVADVTAYGVVDCKGVELAPGESVPMVGVVEKPKADVAPSNLAIVGRYVLSADIWPLLAKTPPGAGDEIQLTDAIDMLIEKETVEAYHMKGKSHDCGNKLGYMQAFVEYGIRHNTLGTEFKAWLEEEMGIKK [P0AEP3]
[1]
  total protein half-life in vivo: 4.77 ± 0.41 h
[2]
  total protein half-life in vivo: 4.87 ± 0.81 h
[3]
  total protein half-life in vivo: 4.91 ± 0.62 h
[4]
  total protein half-life in vivo: 5.41 ± 0.14 h
[5]
  total protein half-life in vivo: 4.728 ± 0.0092 h
[6]
  total protein half-life in vivo: 5.71 ± 0.23 h
[7]
  total protein half-life in vivo: 10.8 ± 1.1 h
[8]
  total protein half-life in vivo: 4.65 ± 0.13 h
[9]
  total protein half-life in vivo: 7.63 ± 0.25 h
[10]
  total protein half-life in vivo: 5.72 ± 0.074 h
[11]
  total protein half-life in vivo: 11.6 ± 0.14 h

## MAANAFVRARIDEDLKNQAADVLAGMGLTISDLVRITLTKVAREKALPFDLREPNQLTIQSIKNSEAGIDVHKAKDADDLFDKLGI
[1]
  total protein half-life in vivo: 2.38 ± 0.28 h
[6]
  total protein half-life in vivo: 0.925 ± 0.13 h
[7]
  total protein half-life in vivo: 0.789 h
[8]
  total protein half-life in vivo: 0.421 h
[9]
  total protein half-life in vivo: 4.6 h
[10]
  total protein half-life in vivo: 0.432 h
[11]
  total protein half-life in vivo: 1.38 h

## MAAVNLRHIEIFHAVMTAGSLTEAAHLLHTSQPTVSRELARFEKVIGLKLFERVRGRLHPTVQGLRLFEEVQRSWYGLDRIVSAAESLREFRQGELSIACLPVFSQSFLPQLLQPFLARYPDVSLNIVPQESPLLEEWLSAQRHDLGLTETLHTPAGTERTELLSLDEVCVLPPGHPLAVKKVLTPDDFQGENYISLSRTDSYRQLLDQLFTEHQVKRRMIVETHSAASVCAMVRAGVGISVVNPLTALDYAASGLVVRRFSIAVPFTVSLIRPLHRPSSALVQAFSGHLQAGLPKLVTSLDAILSSATTA
[1]
  total protein half-life in vivo: 7.04 ± 0.23 h
[2]
  total protein half-life in vivo: 4.89 h
[5]
  total protein half-life in vivo: 5.18 ± 2.1 h
[12]
  total protein half-life in vivo: 3.2 ± 0.26 h
[6]
  total protein half-life in vivo: 6.28 h
[7]
  total protein half-life in vivo: 11.805 ± 0.0096 h
[8]
  total protein half-life in vivo: 5.91 ± 0.071 h
[9]
  total protein half-life in vivo: > 16 h
[11]
  total protein half-life in vivo: 13.1 ± 0.34 h

## MADITLISGSTLGGAEYVAEHLAEKLEEAGFTTETLHGPLLEDLPASGIWLVISSTHGAGDIPDNLSPFYEALQEQKPDLSAVRFGAIGIGSREYDTFCGAIDKLEAELKNSGAKQTGETLKINILDHDIPEDPAEEWLGSWVNLLK
[1]
  total protein half-life in vivo: 3.22 ± 0.1 h
[2]
  total protein half-life in vivo: 2.99 h
[3]
  total protein half-life in vivo: 2.93 ± 0.18 h
[4]
  total protein half-life in vivo: 3.47 ± 0.17 h
[5]
  total protein half-life in vivo: 2.78 ± 0.15 h
[12]
  total protein half-life in vivo: 2.86 ± 0.48 h
[6]
  total protein half-life in vivo: 4.66 ± 0.56 h
[7]
  total protein half-life in vivo: 9.28 ± 2 h
[8]
  total protein half-life in vivo: 2.67 ± 0.13 h
[9]
  total protein half-life in vivo: 3.68 ± 0.24 h
[10]
  total protein half-life in vivo: 5.07 ± 0.09 h
[11]
  total protein half-life in vivo: 9.52 ± 0.099 h

## MADKELKFLVVDDFSTMRRIVRNLLKELGFNNVEEAEDGVDALNKLQAGGYGFVISDWNMPNMDGLELLKTIRADGAMSALPVLMVTAEAKKENIIAAAQAGASGYVVKPFTAATLEEKLNKIFEKLGM [P0AE67]
[1]
  total protein half-life in vivo: 4.52 ± 0.43 h
[2]
  total protein half-life in vivo: 4.01 h
[3]
  total protein half-life in vivo: 3.69 ± 0.95 h
[4]
  total protein half-life in vivo: 5.08 ± 0.6 h
[5]
  total protein half-life in vivo: 4.41 h
[12]
  total protein half-life in vivo: 2.33 ± 0.22 h
[6]
  total protein half-life in vivo: 4.08 ± 0.41 h
[7]
  total protein half-life in vivo: 5.96 ± 0.14 h
[8]
  total protein half-life in vivo: 3.82 ± 0.84 h
[9]
  total protein half-life in vivo: 5.61 ± 0.14 h
[10]
  total protein half-life in vivo: 3.91 h
[11]
  total protein half-life in vivo: 6.33 ± 0.44 h

## MADTKAKLTLNGDTAVELDVLKGTLGQDVIDIRTLGSKGVFTFDPGFTSTASCESKITFIDGDEGILLHRGFPIDQLATDSNYLEVCYILLNGEKPTQEQYDEFKTTVTRHTMIHEQITRLFHAFRRDSHPMAVMCGITGALAAFYHDSLDVNNPRHREIAAFRLLSKMPTMAAMCYKYSIGQPFVYPRNDLSYAGNFLNMMFSTPCEPYEVNPILERAMDRILILHADHEQNASTSTVRTAGSSGANPFACIAAGIASLWGPAHGGANEAALKMLEEISSVKHIPEFVRRAKDKNDSFRLMGFGHRVYKNYDPRATVMRETCHEVLKELGTKDDLLEVAMELENIALNDPYFIEKKLYPNVDFYSGIILKAMGIPSSMFTVIFAMARTVGWIAHWSEMHSDGMKIARPRQLYTGYEKRDFKSDIKR [P0ABH7]
[1]
  total protein half-life in vivo: 4.1 ± 0.75 h
[2]
  total protein half-life in vivo: 3.04 ± 0.12 h
[3]
  total protein half-life in vivo: 2.942 ± 0.0099 h
[4]
  total protein half-life in vivo: 3.4 ± 0.35 h
[5]
  total protein half-life in vivo: 3.08 ± 0.34 h
[12]
  total protein half-life in vivo: 3.18 ± 0.15 h
[6]
  total protein half-life in vivo: 5.24 ± 0.23 h
[7]
  total protein half-life in vivo: 9.82 ± 1.7 h
[8]
  total protein half-life in vivo: 2.94 ± 0.063 h
[9]
  total protein half-life in vivo: 4.55 ± 0.57 h
[10]
  total protein half-life in vivo: 5.57 ± 0.27 h
[11]
  total protein half-life in vivo: 10.5 ± 0.35 h

## MADVHDKATRSKNMRAIATRDTAIEKRLASLLTGQGLAFRVQDASLPGRPDFVVDEYRCVIFTHGCFWHHHHCYLFKVPATRTEFWLEKIGKNVERDRRDISRLQELGWRVLIVWECALRGREKLTDEALTERLEEWICGEGASAQIDTQGIHLLA
[1]
  total protein half-life in vivo: 5.56 h
[2]
  total protein half-life in vivo: 4.58 ± 0.72 h
[3]
  total protein half-life in vivo: 3.63 ± 0.22 h
[4]
  total protein half-life in vivo: 3.67 h
[5]
  total protein half-life in vivo: 4.35 ± 1.4 h
[6]
  total protein half-life in vivo: 4.16 h
[7]
  total protein half-life in vivo: 8.92 h
[8]
  total protein half-life in vivo: 3.98 ± 0.43 h
[9]
  total protein half-life in vivo: 5.45 ± 0.16 h
[10]
  total protein half-life in vivo: 3.9 ± 0.41 h
[11]
  total protein half-life in vivo: 9.27 ± 3.3 h
